Target: SXR/RXR heterodimer (Homo sapiens, UniProt O75469;P19793 O75469:1-434,P19793:1-462)
Assay: EMSA; mutations prevented heterodimer binding; 10 mM Tris pH 8, 100 mM KCl, poly dI:dC, room temp
Settings: tags: TNT (Promega); SXR initiator Leu changed to Met
Protocol: Electrophoretic mobility shift assays were performed using in vitro transcribed, translated proteins (TNT, Promega ). Proteins (1 μl each) were incubated for 20 minutes at room temperature with 100,000 cpm of Klenow-labeled probes in 10 mM Tris pH 8, 100 mM KCl, 6% glycerol, 0.05% NP-40, 1 mM dithiothreitol (DTT), 100 ng/μl poly dI:dC (Pharmacia, Piscataway, N.J.) and then electrophoresed through a 5% polyacrylamide gel in 0.5× TBE (45 mM Tris-base, 45 mM boric acid, 1 mM ethylenediaminetetraacetic acid (EDTA) at room temperature. For competition binding, protein plus unlabeled oligonucleotides at five or fifty fold molar excess were preincubated for ten minutes on ice, then labeled probes were added and incubated for 20 minutes at room temperature. Electrophoresis was as above. The IR series oligonucleotides tested had the following sequences: […]

Sequence of SXR/RXR heterodimer (O75469 whole entry, chain 1 of 2): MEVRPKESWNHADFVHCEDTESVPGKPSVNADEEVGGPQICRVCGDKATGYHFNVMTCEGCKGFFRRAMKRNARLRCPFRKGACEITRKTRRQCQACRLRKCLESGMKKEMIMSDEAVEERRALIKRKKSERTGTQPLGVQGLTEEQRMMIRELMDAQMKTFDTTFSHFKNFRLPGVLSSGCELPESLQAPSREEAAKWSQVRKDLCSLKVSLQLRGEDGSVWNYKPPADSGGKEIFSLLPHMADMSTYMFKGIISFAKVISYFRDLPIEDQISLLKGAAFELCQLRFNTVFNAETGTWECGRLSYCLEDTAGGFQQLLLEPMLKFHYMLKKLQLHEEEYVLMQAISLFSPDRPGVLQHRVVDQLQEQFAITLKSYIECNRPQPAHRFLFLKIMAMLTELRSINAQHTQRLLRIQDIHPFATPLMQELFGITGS
Sequence of SXR/RXR heterodimer (P19793 whole entry, chain 2 of 2): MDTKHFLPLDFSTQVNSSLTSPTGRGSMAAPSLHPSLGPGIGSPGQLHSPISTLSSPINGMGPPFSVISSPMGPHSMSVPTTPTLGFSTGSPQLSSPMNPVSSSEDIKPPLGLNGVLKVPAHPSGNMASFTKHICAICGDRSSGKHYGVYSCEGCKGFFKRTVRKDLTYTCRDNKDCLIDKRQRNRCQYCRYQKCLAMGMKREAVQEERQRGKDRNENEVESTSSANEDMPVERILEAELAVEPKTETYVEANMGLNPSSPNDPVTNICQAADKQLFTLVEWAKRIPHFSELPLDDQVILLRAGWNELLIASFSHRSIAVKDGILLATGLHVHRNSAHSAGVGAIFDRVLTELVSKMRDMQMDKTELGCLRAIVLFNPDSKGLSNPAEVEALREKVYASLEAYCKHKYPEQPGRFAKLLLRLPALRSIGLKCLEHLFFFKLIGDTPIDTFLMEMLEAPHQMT

B1: IR-M (dsDNA)
DNA 1: AGCTTACGTCATGACGTA
DNA 2: TACGTCATGACGTAAGCT
- binding result: no binding

From patent publication US20030044888, “NOVEL STEROID-ACTIVATED NUCLEAR RECEPTORS AND USES THEREFOR” (published 2003)
